Data: publication PMC10104900 (The Journal of Clinical Investigation, 2023)
Like-named read-outs stand apart in the source and are kept apart here.

B1: S728-1157 IgG (antibody, V domains shown)
VH: EVQLVESGGGLVQPGGSLRLSCAASGLLVSRNYMNWVRQAPGKGLEWVSIIYSGGSTFYADSVEGRFTISRDESKNTLYLQMNSLRTDDTAVYYCARDLSDYGGIDCWGQGTLVTVSS
VL: YELTQPLSVSMALGQTARISCGGDNVGSQNVHWYQQRPGQAPVLVIYRDSNRPSGIPERFSGSKSGNTATLTISRAQAGDEADYYCQVWDSSTVAFGGGTKLTVL
notes: copies: 2 + 2
B2: REGN10933 (Regeneron) (antibody, V domains shown)
VH: QVQLVESGGGLVKPGGSLRLSCAASGFTFSDYYMSWIRQAPGKGLEWVSYITYSGSTIYYADSVKGRFTISRDNAKSSLYLQMNSLRAEDTAVYYCARDRGTTMVPFDYWGQGTLVTVSS
VL: DIQMTQSPSSLSASVGDRVTITCQASQDITNYLNWYQQKPGKAPKLLIYAASNLETGVPSRFSGSGSGTDFTFTISGLQPEDIATYYCQQYDNLPLTFGGGTKVEIK
notes: source: HEK293T, transiently cotransfected, purified (protein A-agarose beads); copies: 2 + 2
B3: S451-1140 (antibody, V domains shown)
VH: EVQLVESGGGLVPPGGSLRLSCAASGFIFSNYAMTWVRQAPGKGLEWVSAISGGGGSTDYADSVKGRFTISRDNSKNTLYLQMNSLRAEDTAVYYCAKDLFGSGWSLFDNWGQGTLVTVS
VL: not shown
B4: LY-CoV555 (Eli Lilly) (antibody, V domains shown)
VH: QVQLVQSGAEVKKPGSSVKVSCKASGGTFSNYAISWVRQAPGQGLEWMGRIIPILGIANYAQKFQGRVTITADKSTSTAYMELSSLRSEDTAVYYCARGYYEARHYYYYYAMDVWGQGTAVTVSS
VL: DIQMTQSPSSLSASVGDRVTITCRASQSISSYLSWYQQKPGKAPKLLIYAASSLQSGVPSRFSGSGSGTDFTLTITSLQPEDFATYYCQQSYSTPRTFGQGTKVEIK
B5: S626-161 (antibody, V domains shown)
VH: QLQLQESGPGLVKPSEALSLTCTVSGGSISTSNYYWGWIRQPPGKGLEWIGSIYYRGGTHYNPSLKTRVTISVDTSKNQFSLKLSSVTAADTAVYYCARHTYFYDIVGAAVWEPFDIWGQGTMVTVSS
VL: not shown

What was measured:
[1] = target: T1, SARS-CoV-2 WT RBD (SARS-CoV-2 WT (Wuhan-Hu-1), UniProt P0DTC2); test: ELISA; conditions: both partners purified
[2] = target: spike BA.1-6P (SARS-CoV-2, Omicron BA.1, strain)
[3] = target: recombinant FL spike WT-2P (SARS-CoV-2 WT (Wuhan-Hu-1), stabilised, biotin (EZ-Link Sulfo-NHS-Biotin) in the BLI experiments)
[4] = target: T1, SARS-CoV-2 WT RBD
[5] = target: recombinant FL spike WT-6P (SARS-CoV-2 WT (Wuhan-Hu-1), UniProt P0DTC2, stabilised, biotin (EZ-Link Sulfo-NHS-Biotin) in the BLI experiments)

Binder | binding result [1] | binding result [2] | binding result [3] | binding result [4] | binding result [5]
B1 | binds | – | – | – | –
B2 | binds | – | – | – | –
B3 | – | binds | binds | binds | binds
B4 | binds | – | – | – | –
B5 | – | binds | binds | binds | binds
